Source: US20040014194

Molecular target: T1, Biotin-KSEVNL*DAEFRK-Fluorescein (SEQ ID NO: 3), peptide substrate derived from the sequence of "Swedish" amyloid protein peptide
T1 chain: KSEVNLDAEFRK

B1: mature BACE (SEQ ID NO: 1), Sf9-derived glycosylated human β-secretase (protein)
chain: ETDEEPEEPGRRGSFVEMVDNLRGKSGQGYYVEMTVGSPPQTLNILVDTGSSNFAVGAAPHPFLHRYYQRQLSSTYRDLRKGVYVPYTQGKWEGELGTDLVSIPHGPNVTVRANIAAITESDKFFINGSNWEGILGLAYAEIARPDDSLEPFFDSLVKQTHVPNLFSLQLCGAGFPLNQSEVLASVGGSMIIGGIDHSLYTGSLWYTPIRREWYYEVIIVRVEINGQDLKMDCKEYNYDKSIVDSGTTNLRLPKKVFEAAVKSIKAASSTEKFPDGFWLGEQLVCWQAGTTPWNIFPVISLYLMGEVTNQSFRITILPQQYLRPVEDVATSQDDCYKFAISQSSTGTVMGAVIMEGFYVVFDRARKRIGFAVSACHVHDEFRTAAVEGPFVTLDMEDCGYNIPQTDESTLE
  specificity constant (kcat/Km): 1500 ± 100 M⁻¹ s⁻¹

B2: ProBACE (SEQ ID NO: 2), Sf9-derived soluble pro-β-secretase (protein)
chain: TQHGIRLPLRSGLGGAPLGLRLPRETDEEPEEPGRRGSFVEMVDNLRGKSGQGYYVEMTVGSPPQTLNILVDTGSSNFAVGAAPHPFLHRYYQRQLSSTYRDLRKGVYVPYTQGKWEGELGTDLVSIPHGPNVTVRANIAAITESDKFFINGSNWEGILGLAYAEIARPDDSLEPFFDSLVKQTHVPNLFSLQLCGAGFPLNQSEVLASVGGSMIIGGIDHSLYTGSLWYTPIRREWYYEVIIVRVEINGQDLKMDCKEYNYDKSIVDSGTTNLRLPKKVFEAAVKSIKAASSTEKFPDGFWLGEQLVCWQAGTTPWNIFPVISLYLMGEVTNQSFRITILPQQYLRPVEDVATSQDDCYKFAISQSSTGTVMGAVIMEGFYVVFDRARKRIGFAVSACHVHDEFRTAAVEGPFVTLDMEDCGYNIPQTDESTLE
  specificity constant (kcat/Km): 1500 ± 100 M⁻¹ s⁻¹
